According to patent US20160272694A1:

Experiments:
hEDAR-mFc (human) [1] = molecular target: hEDAR-mFc (human) (UniProt Q9UNE0); test: sandwich ELISA: hEDAR-mFc coated, anti-human IgG (Fc) CH2-HRP detection; EDA-A1 3.13 ng/mL, batch 7
hEDAR-mFc (human) [2] = molecular target: hEDAR-mFc (human) (UniProt Q9UNE0); test: sandwich ELISA: hEDAR-mFc coated, anti-human IgG (Fc) CH2-HRP detection; EDA-A1 with hFc, nominal 12.5 ng/mL, batch 7
hEDAR-mFc (human) [3] = molecular target: hEDAR-mFc (human) (UniProt Q9UNE0); test: sandwich ELISA: hEDAR-mFc coated, anti-human IgG (Fc) CH2-HRP detection; EDA-A1 with hFc, nominal 6.25 ng/mL, batch 7
hEDAR-mFc (human) [4] = molecular target: hEDAR-mFc (human) (UniProt Q9UNE0); test: sandwich ELISA: hEDAR-mFc coated, anti-human IgG (Fc) CH2-HRP detection; EDA-A1 50 ng/mL, batch 7
hEDAR-mFc (human) [5] = molecular target: hEDAR-mFc (human) (UniProt Q9UNE0); test: sandwich ELISA: hEDAR-mFc coated, anti-human IgG (Fc) CH2-HRP detection; EDA-A1 with hFc, nominal 100 ng/mL, batch 7
hEDAR-mFc (human) [6] = molecular target: hEDAR-mFc (human) (UniProt Q9UNE0); test: sandwich ELISA: hEDAR-mFc coated, anti-human IgG (Fc) CH2-HRP detection; EDA-A1 6.25 ng/mL, batch 7
hEDAR-mFc (human) [7] = molecular target: hEDAR-mFc (human) (UniProt Q9UNE0); test: sandwich ELISA: hEDAR-mFc coated, anti-human IgG (Fc) CH2-HRP detection; EDA-A1 25 ng/mL, batch 7
hEDAR-mFc (human) [8] = molecular target: hEDAR-mFc (human) (UniProt Q9UNE0); test: sandwich ELISA: hEDAR-mFc coated, anti-human IgG (Fc) CH2-HRP detection; EDA-A1 100 ng/mL, batch 5
hEDAR-mFc (human) [9] = molecular target: hEDAR-mFc (human) (UniProt Q9UNE0); test: sandwich ELISA: hEDAR-mFc coated, anti-human IgG (Fc) CH2-HRP detection; EDA-A1 with hFc, nominal 25 ng/mL, batch 7
hEDAR-mFc (human) [10] = molecular target: hEDAR-mFc (human) (UniProt Q9UNE0); test: sandwich ELISA: hEDAR-mFc coated, anti-human IgG (Fc) CH2-HRP detection; EDA-A1 12.5 ng/mL, batch 7
hEDAR-mFc (human) [11] = molecular target: hEDAR-mFc (human) (UniProt Q9UNE0); test: sandwich ELISA: hEDAR-mFc coated, anti-human IgG (Fc) CH2-HRP detection; EDA-A1 100 ng/mL with hFc 100 ng/mL, batch 5
hEDAR-mFc (human) [12] = molecular target: hEDAR-mFc (human) (UniProt Q9UNE0); test: sandwich ELISA: hEDAR-mFc coated, anti-human IgG (Fc) CH2-HRP detection; EDA-A1 with hFc, nominal 50 ng/mL, batch 7
hEDAR-mFc (human) [13] = molecular target: hEDAR-mFc (human) (UniProt Q9UNE0); test: sandwich ELISA: hEDAR-mFc coated, anti-human IgG (Fc) CH2-HRP detection; EDA-A1 with hFc, nominal 3.13 ng/mL, batch 7
hEDAR-mFc (human) [14] = molecular target: hEDAR-mFc (human) (UniProt Q9UNE0); test: sandwich ELISA: hEDAR-mFc coated, anti-human IgG (Fc) CH2-HRP detection; EDA-A1 100 ng/mL, batch 7
EDI200 (human) [15] = test: bridging ECL (biotin-EDI200/SulfoTag-EDI200) in NHP serum; Renzo-1 31.25 ng/mL
EDI200 (human) [16] = test: bridging ECL in NHP serum; Renzo-1 500 ng/mL, signal with 1 µg/mL free EDI200 over signal without (Table 17)
EDI200 (human) [17] = test: bridging ECL in NHP serum; Renzo-1 7.81 ng/mL with 1 µg/mL free EDI200 as competitor
EDI200 (human) [18] = test: bridging ECL (biotin-EDI200/SulfoTag-EDI200) in NHP serum; Renzo-1 7.81 ng/mL
EDI200 (human) [19] = test: bridging ECL in NHP serum; Renzo-1 15.63 ng/mL with 1 µg/mL free EDI200 as competitor
EDI200 (human) [20] = test: bridging ECL in NHP serum; Renzo-1 125 ng/mL with 1 µg/mL free EDI200 as competitor
EDI200 (human) [21] = test: bridging ECL (biotin-EDI200/SulfoTag-EDI200) in NHP serum; Renzo-1 125 ng/mL
EDI200 (human) [22] = test: bridging ECL (biotin-EDI200/SulfoTag-EDI200) in NHP serum; Renzo-1 15.63 ng/mL
EDI200 (human) [23] = test: bridging ECL in NHP serum; Renzo-1 15.63 ng/mL, signal with 1 µg/mL free EDI200 over signal without (Table 17)
EDI200 (human) [24] = test: bridging ECL in NHP serum; Renzo-1 250 ng/mL with 1 µg/mL free EDI200 as competitor
EDI200 (human) [25] = test: bridging ECL (biotin-EDI200/SulfoTag-EDI200) in NHP serum; Renzo-1 250 ng/mL
EDI200 (human) [26] = test: bridging ECL in NHP serum; Renzo-1 62.5 ng/mL with 1 µg/mL free EDI200 as competitor
EDI200 (human) [27] = test: bridging ECL in NHP serum; Renzo-1 31.25 ng/mL, signal with 1 µg/mL free EDI200 over signal without (Table 17)
EDI200 (human) [28] = test: bridging ECL in NHP serum; Renzo-1 7.81 ng/mL, signal with 1 µg/mL free EDI200 over signal without (Table 17)
EDI200 (human) [29] = test: bridging ECL (biotin-EDI200/SulfoTag-EDI200) in NHP serum; plate NCO 129.4
EDI200 (human) [30] = test: bridging ECL in NHP serum; Renzo-1 31.25 ng/mL with 1 µg/mL free EDI200 as competitor
EDI200 (human) [31] = test: bridging ECL in NHP serum; Renzo-1 250 ng/mL, signal with 1 µg/mL free EDI200 over signal without (Table 17)
EDI200 (human) [32] = test: bridging ECL in NHP serum; Renzo-1 62.5 ng/mL, signal with 1 µg/mL free EDI200 over signal without (Table 17)
EDI200 (human) [33] = test: bridging ECL (biotin-EDI200/SulfoTag-EDI200) in NHP serum; Renzo-1 62.5 ng/mL
EDI200 (human) [34] = test: bridging ECL (biotin-EDI200/SulfoTag-EDI200) in NHP serum; Renzo-1 500 ng/mL; plate NCO 129.4
EDI200 (human) [35] = test: bridging ECL in NHP serum; Renzo-1 125 ng/mL, signal with 1 µg/mL free EDI200 over signal without (Table 17)
EDI200 (human) [36] = test: bridging ECL in NHP serum; Renzo-1 500 ng/mL with 1 µg/mL free EDI200 as competitor; plate NCO 129.4
EDI200 (human) [37] = test: bridging ECL in NHP serum; antibody 15.63 ng/mL with 1 µg/mL free EDI200
EDI200 (human) [38] = test: bridging ECL in NHP serum; antibody 125 ng/mL, signal with 1 µg/mL free EDI200 over signal without
EDI200 (human) [39] = test: bridging ECL in NHP serum; antibody 7.81 ng/mL, signal with 1 µg/mL free EDI200 over signal without
EDI200 (human) [40] = test: bridging ECL in NHP serum; antibody 7.81 ng/mL with 1 µg/mL free EDI200
EDI200 (human) [41] = test: bridging ECL (biotin-EDI200/SulfoTag-EDI200) in NHP serum; antibody 500 ng/mL; plate NCO 129.4
EDI200 (human) [42] = test: bridging ECL (biotin-EDI200/SulfoTag-EDI200) in NHP serum; antibody 125 ng/mL
EDI200 (human) [43] = test: bridging ECL in NHP serum; antibody 500 ng/mL, signal with 1 µg/mL free EDI200 over signal without
EDI200 (human) [44] = test: bridging ECL (biotin-EDI200/SulfoTag-EDI200) in NHP serum; antibody 15.63 ng/mL
EDI200 (human) [45] = test: bridging ECL in NHP serum; antibody 31.25 ng/mL, signal with 1 µg/mL free EDI200 over signal without
EDI200 (human) [46] = test: bridging ECL in NHP serum; antibody 125 ng/mL with 1 µg/mL free EDI200
EDI200 (human) [47] = test: bridging ECL in NHP serum; antibody 15.63 ng/mL, signal with 1 µg/mL free EDI200 over signal without
EDI200 (human) [48] = test: bridging ECL in NHP serum; antibody 250 ng/mL with 1 µg/mL free EDI200
EDI200 (human) [49] = test: bridging ECL (biotin-EDI200/SulfoTag-EDI200) in NHP serum; antibody 250 ng/mL
EDI200 (human) [50] = test: bridging ECL in NHP serum; antibody 62.5 ng/mL with 1 µg/mL free EDI200
EDI200 (human) [51] = test: bridging ECL (biotin-EDI200/SulfoTag-EDI200) in NHP serum; antibody 62.5 ng/mL
EDI200 (human) [52] = test: bridging ECL (biotin-EDI200/SulfoTag-EDI200) in NHP serum; antibody 31.25 ng/mL
EDI200 (human) [53] = test: bridging ECL in NHP serum; antibody 500 ng/mL with 1 µg/mL free EDI200
EDI200 (human) [54] = test: bridging ECL in NHP serum; antibody 62.5 ng/mL, signal with 1 µg/mL free EDI200 over signal without
EDI200 (human) [55] = test: bridging ECL in NHP serum; antibody 31.25 ng/mL with 1 µg/mL free EDI200
EDI200 (human) [56] = test: bridging ECL in NHP serum; antibody 250 ng/mL, signal with 1 µg/mL free EDI200 over signal without
EDI200 (human) [57] = test: bridging ECL (biotin-EDI200/SulfoTag-EDI200) in NHP serum; antibody 7.81 ng/mL

Recombinant human Ectodysplasin A1 (from UniProt Q92838 160-391) (ligand)
Mean OD (hEDAR-mFc (human) [1]): 0.116 OD
Mean OD (hEDAR-mFc (human) [2]): 0.15 OD
Mean OD (hEDAR-mFc (human) [3]): 0.125 OD
Mean OD (hEDAR-mFc (human) [4]): 0.234 OD
Mean Conc. (read as EDI200 from the standard curve) (hEDAR-mFc (human) [5]): 4.77 ng/mL
Mean OD (hEDAR-mFc (human) [5]): 0.275 OD
Mean OD (hEDAR-mFc (human) [6]): 0.119 OD
Mean OD (hEDAR-mFc (human) [7]): 0.18 OD
Mean Conc. (read as EDI200 from the standard curve) (hEDAR-mFc (human) [8]): 5.43 ng/mL
Mean OD (hEDAR-mFc (human) [8]): 0.292 OD
Mean OD (hEDAR-mFc (human) [9]): 0.18 OD
Mean OD (hEDAR-mFc (human) [10]): 0.14 OD
Mean Conc. (read as EDI200 from the standard curve) (hEDAR-mFc (human) [11]): 5.34 ng/mL
Mean OD (hEDAR-mFc (human) [11]): 0.289 OD
Mean OD (hEDAR-mFc (human) [12]): 0.214 OD
Mean OD (hEDAR-mFc (human) [13]): 0.121 OD
Mean Conc. (read as EDI200 from the standard curve) (hEDAR-mFc (human) [14]): 6.14 ng/mL
Mean OD (hEDAR-mFc (human) [14]): 0.316 OD

Mouse monoclonal (Renzo-1) to EDA (antibody)
Mean Signal (EDI200 (human) [15]): 129 signal (ECL)
Drug/Non-drug Ratio (EDI200 (human) [16]): 0.18
Mean Signal (EDI200 (human) [17]): 81 signal (ECL)
Mean Signal (EDI200 (human) [18]): 89 signal (ECL)
Mean Signal (EDI200 (human) [19]): 78 signal (ECL)
Mean Signal (EDI200 (human) [20]): 85 signal (ECL)
Mean Signal (EDI200 (human) [21]): 306 signal (ECL)
Mean Signal (EDI200 (human) [22]): 102 signal (ECL)
Drug/Non-drug Ratio (EDI200 (human) [23]): 0.77
Mean Signal (EDI200 (human) [24]): 89 signal (ECL)
Mean Signal (EDI200 (human) [25]): 495 signal (ECL)
Mean Signal (EDI200 (human) [26]): 75 signal (ECL)
Drug/Non-drug Ratio (EDI200 (human) [27]): 0.62
Drug/Non-drug Ratio (EDI200 (human) [28]): 0.91
sensitivity (lowest antibody concentration with mean signal above the plate NCO) (EDI200 (human) [29]): 62.5 ng/mL
Mean Signal (EDI200 (human) [30]): 80 signal (ECL)
Drug/Non-drug Ratio (EDI200 (human) [31]): 0.18
Drug/Non-drug Ratio (EDI200 (human) [32]): 0.43
Mean Signal (EDI200 (human) [33]): 176 signal (ECL)
Mean Signal (EDI200 (human) [34]): 949 signal (ECL)
Drug/Non-drug Ratio (EDI200 (human) [35]): 0.28
Mean Signal (EDI200 (human) [36]): 171 signal (ECL)

mouse anti-human CD106 IgG1 antibody
Mean Signal (EDI200 (human) [37]): 74 signal (ECL)
Drug/Non-drug Ratio (EDI200 (human) [38]): 0.93
Drug/Non-drug Ratio (EDI200 (human) [39]): 0.93
Mean Signal (EDI200 (human) [40]): 80 signal (ECL)
Mean Signal (EDI200 (human) [41]): 86 signal (ECL)
Mean Signal (EDI200 (human) [42]): 82 signal (ECL)
Drug/Non-drug Ratio (EDI200 (human) [43]): 0.95
Mean Signal (EDI200 (human) [44]): 81 signal (ECL)
Drug/Non-drug Ratio (EDI200 (human) [45]): 0.93
Mean Signal (EDI200 (human) [46]): 76 signal (ECL)
Drug/Non-drug Ratio (EDI200 (human) [47]): 0.91
Mean Signal (EDI200 (human) [48]): 80 signal (ECL)
Mean Signal (EDI200 (human) [49]): 83 signal (ECL)
Mean Signal (EDI200 (human) [50]): 76 signal (ECL)
Mean Signal (EDI200 (human) [51]): 81 signal (ECL)
Mean Signal (EDI200 (human) [52]): 81 signal (ECL)
Mean Signal (EDI200 (human) [53]): 81 signal (ECL)
Drug/Non-drug Ratio (EDI200 (human) [54]): 0.94
Mean Signal (EDI200 (human) [55]): 76 signal (ECL)
Drug/Non-drug Ratio (EDI200 (human) [56]): 0.96
Mean Signal (EDI200 (human) [57]): 85 signal (ECL)
